Substrate: Cc1cc(=O)oc2c(F)c(OP(=O)(O)O)c(F)cc12
Experiment: DiFMUP fluorescence phosphatase assay, Michaelis-Menten fit
Format: biochemical, Homo sapiens
Conditions: 20 mM tris-acetate pH 6.0, 150 mM NaCl, BSA 0.1 mg/ml

Protein	Km [µM]	kcat/Km [M⁻¹ s⁻¹]
RPAP2_32–345 (Homo sapiens) (protein) LKQEDASKRKAELEAAVRKKIEFERKALHIVEQLLEENITEEFLMECGRFITPAHYSDVVDERSIVKLCGYPLCQKKLGIVPKQKYKISTKTNKVYDITERKSFCSNFCYQASKFFEAQIPKTPVWVREEERHPDFQLLKEEQSGHSGEEVQLCSKAIKTSDIDNPSHFEKQYESSSSSTHSDSSSDNEQDFVSSILPGNRPNSTNIRPQLHQKSIMKKKAGHKANSKHKDKEQTVVDVTEQLGDCKLDSQEKDATCELPLQKVNTQSSSNSTLPERLKASENSESEYSRSEITLVGISKKSAEHFKRKFAKSN	34.20 ± 0.84	333000
RPAP2_32–274 (Homo sapiens) (protein) LKQEDASKRKAELEAAVRKKIEFERKALHIVEQLLEENITEEFLMECGRFITPAHYSDVVDERSIVKLCGYPLCQKKLGIVPKQKYKISTKTNKVYDITERKSFCSNFCYQASKFFEAQIPKTPVWVREEERHPDFQLLKEEQSGHSGEEVQLCSKAIKTSDIDNPSHFEKQYESSSSSTHSDSSSDNEQDFVSSILPGNRPNSTNIRPQLHQKSIMKKKAGHKANSKHKDKEQTVVDVTEQL	30.95 ± 1.75	833000

Source: PMC4801511
